Measured values reported in patent publication US20070010658A1 (published 2007).
Numbering of substitutions follows the chain as printed. One block for each binder: values may come before it.

Experiments:
TNF alpha [1] = molecular target: T1, TNF alpha (UniProt P01375 77-233, limits assumed); test: SPR (BIAcore 3000), TNF alpha captured by immobilised antibody AHC3712, binder injected
T1 construct: also called tumour necrosis factor; TNFSF2
Protocol: (§1) Surface plasmon resonance (SPR) binding analysis was performed on a BIAcore 3000 instrument (BiaCore, Sweden). TNF alpha capture antibody (AHC3712, Biosource International) to be immobilized was dissolved in 10 mM NaAcetate pH 5.0 and then immobilized on a CM5 BiaCore sensor chip using the Amine Coupling kit (BiaCore, Sweden).
(§2) Binding analysis was performed at a flow rate of 5 μl/min. Before loading of the protein sample, the chip was equilibrated in 10 mM Tris pH 8.0, 150 mM NaCl, 2 mM CaCl₂, 50 μM EDTA and 0.005% Surfactant P20. TNF alpha was dissolved in 10 mM Tris pH 8.0, 150 mM NaCl, 2 mM CaCl₂ at 10 μg/mL and 10 μL was injected. Aliquots (20 μl) of TNF alpha binders in monomeric or the trimeric format were injected using the KINJECT option. Five min of dissociation were allowed before the chip was regenerated with 10 mM Glycine pH 2.5. Binding of TNF alpha binders was tested at six different protein concentrations, ranging from 1 to 200 nM. Binding data were evaluated using the BIAevaluation program version 3.2 (BiaCore).

TNF alpha [2] = molecular target: T1, TNF alpha; test: SPR; off rate of the trimer against monomeric TN3-2-B
Protocol: as §1, §2

TNF alpha [3] = molecular target: T1, TNF alpha; test: SPR; fold increase in affinity of the trimer over monomeric TN3-2-B
Protocol: as §1, §2

TNF alpha [4] = molecular target: T1, TNF alpha; test: SPR; fold increase in affinity of the trimer over monomeric TN3-2-C
Protocol: as §1, §2

TNF alpha [5] = molecular target: T1, TNF alpha; test: SPR; fold increase in affinity of the trimer over monomeric TN3-2-D
Protocol: as §1, §2

T1 sequence (P01375 77-233 limits assumed): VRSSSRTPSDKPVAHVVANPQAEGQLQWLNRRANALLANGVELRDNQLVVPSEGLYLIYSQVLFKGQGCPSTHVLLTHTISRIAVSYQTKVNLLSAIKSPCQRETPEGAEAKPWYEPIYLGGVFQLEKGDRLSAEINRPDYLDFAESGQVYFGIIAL

Kd (TNF alpha [1]): 50 nM
koff (TNF alpha [1]): 0.0185 s⁻¹
kon (TNF alpha [1]): 364000 M⁻¹ s⁻¹
B3: TN3-2-D (monomeric) (designed binder)
chain: ALQTVCLKGTKVHMKCFLAFTQTKTFHEASEDCISRGGTLSTPQTGSENDALYEYLRQSVGNEAEIWLGLNKVRSRYFWIDMTGTRIAYKNWETEITAQPDPNNRENCAVLSGAANGKWFGKRCRDQLPYICQFGIV
notes: Purified monomer from the E. coli periplasm (pBAD) for SPR

Fold increase (TNF alpha [4]): 37 fold
Kd (TNF alpha [1]): 4 nM
koff (TNF alpha [1]): 0.00353 s⁻¹
kon (TNF alpha [1]): 884000 M⁻¹ s⁻¹
B5: TN-2-C (trimeric) (designed binder)
chain: EPPTQKPKKIVNAKKDVVNTKMFEELKSRLDTLAQEVALLKEQQALQTVCLKGTKVHMKCFLAFTQTKTFHEASEDCISRGGTLSTPQTGSENDALYEYLRQSVGNEAEIWLGLNKVRSRYFWVDMTGTRIAYKNWETEITAQPDPTNRENCAVLSGAANGKWFDKRCRDQLPYICQFGIV
notes: also called trimeric version of TN3-2-C

Kd (TNF alpha [1]): 4.1 nM
koff (TNF alpha [1]): 0.00207 s⁻¹
kon (TNF alpha [1]): 506000 M⁻¹ s⁻¹
Fold increase (TNF alpha [5]): 12 fold
B6: TN-2-D (trimeric) (designed binder)
chain: B5 chain with V124I, T147N, D165G
notes: also called trimeric version of TN3-2-D

More lines, now with the values behind:

B1: TN3-2-B (monomeric) (designed binder)
chain: B3 chain with I80M, N103T, R105N
notes: as for B3
Kd (TNF alpha [1]): 73 nM
koff (TNF alpha [1]): 0.923 s⁻¹
kon (TNF alpha [1]): 1.4e+07 M⁻¹ s⁻¹

B2: TN3-2-C (monomeric) (designed binder)
chain: B3 chain with I80V, N103T, G121D
notes: as for B3
Kd (TNF alpha [1]): 150 nM
koff (TNF alpha [1]): 0.022 s⁻¹
kon (TNF alpha [1]): 134000 M⁻¹ s⁻¹

B4: TN-2-B (trimeric) (designed binder)
chain: B5 chain with V124M, R149N, D165G
notes: also called trimeric version of TN3-2-B
fold improvement of off value (TNF alpha [2]): > 1000 fold
Kd (TNF alpha [1]): ~0.24 nM
koff (TNF alpha [1]): 0.000736 s⁻¹
kon (TNF alpha [1]): 3.02e+06 M⁻¹ s⁻¹
Fold increase (TNF alpha [3]): 304 fold
